{
  "source": "paper PMC12030383",
  "about": "“Pharmacokinetics, Pharmacodynamics, and Bioequivalence of Test Insulin Glargine Versus Reference Preparation (Lantus®) in Healthy Male Volunteers—By Euglycemic Clamp Technique” (Pharmaceutics, 2025)",
  "origin": "cited, not measured here",
  "experimental": "After subcutaneous injection, the acidic solution in insulin is neutralized so that the insulin analog forms a precipitated microscopic deposit at the injection site, thus allowing for a slow and continuous release of insulin glargine from the injection site into the bloodstream, resulting in a smooth and predictable blood concentration without peaks for up to 24 h. Therefore, insulin glargine can be administered ...",
  "data": [
    {"substance": "Insulin glargine", "values": [
      {"measurement": "solubility in acidic solutions", "setting": "acidic solutions", "value": "completely soluble"},
      {"measurement": "solubility in neutral solutions", "setting": "neutral solutions", "value": "low solubility"}
    ]}
  ]
}
